Source: the supplement of paper PMC10567573

B1: CHIT1 (parent)
chain: CSWKGATKQRIQDQKVPYIFRDNQ
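Note: lentivirally expressed fusions sorted by FACS into six bins by GFP to DsRed ratio, PSI derived from sequencing read proportions per bin multiplied by bin number.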

Variants of: B1
Experiment: protein stability index of a GFP-peptide fusion (GPS, HEK-293T) (PSI 1-6); higher = more stable
Settings: c terminus: a fixed tail appended
CSWKGATKQRIQDQKVPDIFRDNQ [Y18D] showed a protein stability index of 3.5.
CSWKGATKQRIQDQKVPFIFRDNQ [Y18F] showed a protein stability index of 2.12.
With CSWKGATKQRIQDQKVPGIFRDNQ [Y18G] the protein stability index was 4.15.
Variant CSWKGATKQRIQDQKVPHIFRDNQ [Y18H] has a protein stability index of 2.74.
Work on CSWKGATKQRIQDQKVPIIFRDNQ [Y18I] yielded a protein stability index of 2.23.
Variant CSWKGATKQRIQDQKVPKIFRDNQ [Y18K] has a protein stability index of 3.34.
Work on CSWKGATKQRIQDQKVPMIFRDNQ [Y18M] yielded a protein stability index of 2.41.
In the case of CSWKGATKQRIQDQKVPNIFRDNQ [Y18N], the protein stability index is reported as 3.4.
With CSWKGATKQRIQDQKVPPIFRDNQ [Y18P] the protein stability index was 2.58.
With CSWKGATKQRIQDQKVPRIFRDNQ [Y18R] the protein stability index was 3.08.
CSWKGATKQRIQDQKVPTIFRDNQ [Y18T] gave a protein stability index of 3.02.
With CSWKGATKQRIQDQKVPVIFRDNQ [Y18V] the protein stability index was 3.46.
With CSWKGATKQRIQDQKVPWIFRDNQ [Y18W] the protein stability index was 2.19.
Variant CSWKGATKQRIQDQKVPYAFRDNQ [I19A] has a protein stability index of 3.19.
Variant CSWKGATKQRIQDQKVPYCFRDNQ [I19C] has a protein stability index of 2.35.
CSWKGATKQRIQDQKVPYDFRDNQ [I19D] gave a protein stability index of 3.88.
CSWKGATKQRIQDQKVPYEFRDNQ [I19E] gave a protein stability index of 3.31.
CSWKGATKQRIQDQKVPYFFRDNQ [I19F] showed a protein stability index of 2.08.
With CSWKGATKQRIQDQKVPYHFRDNQ [I19H] the protein stability index was 3.02.
Variant CSWKGATKQRIQDQKVPYKFRDNQ [I19K] has a protein stability index of 3.67.
With CSWKGATKQRIQDQKVPYLFRDNQ [I19L] the protein stability index was 2.3.
CSWKGATKQRIQDQKVPYMFRDNQ [I19M] gave a protein stability index of 3.54.
CSWKGATKQRIQDQKVPYNFRDNQ [I19N] showed a protein stability index of 3.17.
Work on CSWKGATKQRIQDQKVPYPFRDNQ [I19P] yielded a protein stability index of 1.87.
With CSWKGATKQRIQDQKVPYRFRDNQ [I19R] the protein stability index was 3.28.
Variant CSWKGATKQRIQDQKVPYTFRDNQ [I19T] has a protein stability index of 2.77.
In the case of CSWKGATKQRIQDQKVPYVFRDNQ [I19V], the protein stability index is reported as 2.88.
Work on CSWKGATKQRIQDQKVPYWFRDNQ [I19W] yielded a protein stability index of 2.06.
Work on CSWKGATKQRIQDQKVPYYFRDNQ [I19Y] yielded a protein stability index of 1.95.
For CSWKGATKQRIQDQKVPYIARDNQ [F20A], the protein stability index was 3.11.
Variant CSWKGATKQRIQDQKVPYICRDNQ [F20C] has a protein stability index of 3.11.
For CSWKGATKQRIQDQKVPYIDRDNQ [F20D], the protein stability index was 3.16.
CSWKGATKQRIQDQKVPYIERDNQ [F20E] showed a protein stability index of 3.99.
For CSWKGATKQRIQDQKVPYIGRDNQ [F20G], the protein stability index was 2.87.
CSWKGATKQRIQDQKVPYIHRDNQ [F20H] gave a protein stability index of 3.29.
In the case of CSWKGATKQRIQDQKVPYIIRDNQ [F20I], the protein stability index is reported as 2.
CSWKGATKQRIQDQKVPYIKRDNQ [F20K] showed a protein stability index of 3.17.
In the case of CSWKGATKQRIQDQKVPYILRDNQ [F20L], the protein stability index is reported as 3.47.
With CSWKGATKQRIQDQKVPYIMRDNQ [F20M] the protein stability index was 3.53.
Variant CSWKGATKQRIQDQKVPYINRDNQ [F20N] has a protein stability index of 2.93.
For CSWKGATKQRIQDQKVPYIPRDNQ [F20P], the protein stability index was 3.13.
For CSWKGATKQRIQDQKVPYIQRDNQ [F20Q], the protein stability index was 3.61.
In the case of CSWKGATKQRIQDQKVPYIRRDNQ [F20R], the protein stability index is reported as 3.08.
In the case of CSWKGATKQRIQDQKVPYISRDNQ [F20S], the protein stability index is reported as 3.13.
Variant CSWKGATKQRIQDQKVPYITRDNQ [F20T] has a protein stability index of 3.71.
CSWKGATKQRIQDQKVPYIVRDNQ [F20V] gave a protein stability index of 3.09.
CSWKGATKQRIQDQKVPYIYRDNQ [F20Y] gave a protein stability index of 2.74.
